# Data: the nanobody polyreactivity screen of Harvey et al. (2022)
# Experiment: yeast display, Sf9 membrane polyspecificity reagent, FACS + sequencing; frameworks hold sequencing errors
# Outline: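 A nanobody's polyreactivity label depends on the gate it was sorted from. Yeast display cells were stained with 10% biotinylated, detergent-solubilized Sf9 membrane reagent for 1 hour at 4 °C, enriched on streptavidin microbeads and sorted by FACS. The low and high (top ~1%) gates were set on anti-HA fluorescence for expression and streptavidin fluorescence for reagent binding.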
row,Sequence,polyreactivity (PSR sort gate)
1,QVQLVESGGGLVQAGGSLRLSCAASGRTFHSNAMGWYRQAPGKERELFAAISYSGGSTYYADSVKGRFTISRDNAKNTVYLQMNSLKPEDTAVYYCNAGAVHKKPARDYWGQGTKVTVSS,low polyreactivity
2,QVQLVESGGGLVQAGGSLRLSCAASGRTFHSNAMGWYRQAPGNDRELVASSRRGSRTYYADSVKGRFTISRDNAKNTVSLQLTSLKPEDTAVYYCAAAQVGYYVGSVTYGYWGQATQVTVSS,high polyreactivity
3,QVQLVESGGGLVQAGGSLRLSCAASGRTFHTYAMGWYRQAPGKERELVARITRSGTSTYYADSVKGRFTISRDNAKNTVYLQMNSLKPEDTAVYYCAKPWFLWGYSTSYDWGQGTQVTVSS,high polyreactivity
4,QVQLVESGGGLVQAGGSLRLSCAASGRTFHVYAMGWYRQAPGKERELVATITDGSTNYADSVKGRFTISRDNAKNTVYLQMNRLKPEDNAVYYCATVRDWIPSGDYEYWGQCTQVTVSS,low polyreactivity
5,QVQLVESGGGLVQAGGSLRLSCAASGRTFHWYAMGWYRQAPGKERELVAAIRYSAGSTYYADSVKGRFTISRDNAKNTVYLQMNSLKPEDTAVYYCAAEPYPYGPYYFLWLRYDYWGQGTQVTVSS,low polyreactivity
6,QVQLVESGGGLVQAGGSLRLSCAASGRTFHYNAMGWYRQAPGKERELVAAISFNGGGTYYADSVKGRFTISRDNAKNTVYLQMNSLKPEDTAVYYCNVDAAGSNSHARHDSWGQGTQVTVSS,low polyreactivity
7,QVQLVESGGGLVQAGGSLRLSCAASGRTFHYYAMGWYRQAPGKERELVAAISRGGNTYYADSVKGRFTISRDNAKNTVYLQMNSLKPEDTAVYYCAKDNHFEAYRYDYWGQGTQVTVSS,high polyreactivity
8,QVQLVESGGGLVQAGGSLRLSCAASGRTFHYYAMGWYRQAPGKERELVAAITSSGGSTYYADSVKGRFTISRDNANNTVYLQMNSLKPEDTAVYYFNAYSSYIKYDYWGQGTQVTVSS,high polyreactivity
9,QVQLVESGGGLVQAGGSLRLSCAASGRTFIANAMGWYRQAPGKERELVAVITLNGGSTYYADSVKGRFTISRDNAKSTVYLQMISLKPEDTAVYYCAAGRYYNLRATHGYWGQGTQVTVSS,low polyreactivity
10,QVQLVESGGGLVQAGGSLRLSCAASGRTFIAYGMGWYRQAPGKERELVAAISRNGASTYYADSVKGRFTISRDNAKNTVYLQMNSLKPEDNAVYYCAAGYIRSRGGRWTHSGYWGQGTQVTVSS,high polyreactivity
11,QVQLVESGGGLVQAGGSLRLSCAASGRTFIGYAMGWYRQAPGKERELVATISVSGGSTYYADSVKGRFTISRDNAKNTVYLQMNSLTPVDTAVYYCADDPRYLQSWRGEFAGESWGQGTQVTVAS,low polyreactivity
12,QVQLVESGGGLVQAGGSLRLSCAASGRTFIGYNMGWYRQAPGKERELVAAITWNGGRTYYADSVKGRFTISRDNAKNTVYLQMNSLKPEDTAVYYCAAPRRVVIGGGDYWGQGTQVTVSS,high polyreactivity
13,QVQLVESGGGLVQAGGSLRLSCAASGRTFIINGMGWYRQAPGKERELVAAITTSGGSTYYADSVKGRFTISRDNAKNTVYLQMNSLKPEDTAVYSCAADVFSRKYLYGDYDYWGQGTQVTVSS,high polyreactivity
14,QVQLVESGGGLVQAGGSLRLSCAASGRTFIQYAMGWYRQAPGKERELVAAISLSGGSTYYADSVKGRFTISRDNAKNTVYLQMNSLKPEDTAVYYCNAGYYWGQGTQVTVSS,high polyreactivity
15,QVQLVESGGGLVQAGGSLRLSCAASGRTFIRNAMGWYRQAPGKERELVAAITRSGGSTYYADSVKGRFTISRDNAKNTVYFQMNSLKPEDTAVYYCAAQPFYYLVGVPDDYWGQGTHVTVSS,low polyreactivity
16,QVQLVESGGGLVQAGGSLRLSCAASGRTFIWYAMGWYRQAPGKERELVAAISYSGASTYYADSVKGRFTNSRDNAKNTVYLQMNSLKPEDTAVYYCYPLGTYSYDYWGQGTQVTVSS,high polyreactivity
17,QVQLVESGGGLVQAGGSLRLSCAASGRTFIYYAMGWYRQAPGKEREFVAIISWNGTSTNYADSVKGRFTISRDKAKNTVYLQMNSLKPEDTAVYYCAASFWSDYYRYDYWGQGTQVTVSS,low polyreactivity
18,QVQLVESGGGLVQAGGSLRLSCAASGRTFKDYAMGWYRQAPGKERELVAAISWSGGDTYYADSVKGRFTISRDNAKNTVYLQMNRLKPEDTAVYYCNADPSGVFFYSLEFDYWGQGTQVTVSS,low polyreactivity
19,QVQLVESGGGLVQAGGSLRLSCAASGRTFKGYVMGWYRQAPGKERELVAAITYGGGSTYYADSVKGRFTISRDNAKNTVYLQMNSLKPEDTAVYYCAADSIYGTKYDYWGQGTQVTVSS,high polyreactivity
20,QVQLVESGGGLVQAGGSLRLSCAASGRTFKHNAMGWYRQAPGKERELVAAINQSGSSTYYADSVKGRFTISRDNAKNTVYLQMNSLKPEDTAVYYCAAGVFFFTFDYWGQGTQVTVSS,low polyreactivity
21,QVQLVESGGGLVQAGGSLRLSCAASGRTFKHYAMGWYRQAPGKERELVAGISRGGGITYYADSVKGRFTISRDNAKNTVYLQMNSLKPDDTAVYYCNAYDLYKSGGDYWGQGTQVTVSS,high polyreactivity
22,QVQLVESGGGLVQAGGSLRLSCAASGRTFKKYAMGWYRQAPGKEREMVAAITGSGGSTYYADSVKRRFTISRDNAKNTVYLQMNSLKPEDTAVYYCAAYAYGVWHSQDGGNYWGQGTQVTVSS,low polyreactivity

row,Sequence,polyreactivity (PSR sort gate)
1,QVQLVESGGGLVQAGGSLRLSCAASGRTFKLNAMGWYRQAPGKERELVAAISRNGGSTYYADSVKGRFTISRDNAKNTVYLQMTSLKPEDTAVYYCAAVRHGVSLAGYYWGQGTQVTVSS,high polyreactivity
2,QVQLVESGGGLVQAGGSLRLSCAASGRTFKLYAMGWYRQAPGKERELVAAITESGGSTYYAVSVKGRFTISRDNAKNTVYLQMNSLKPEDTAVYYCAAYASAGTRGGYDYWGQGTQVTVSS,low polyreactivity
3,QVQLVESGGGLVQAGGSLRLSCAASGRTFKRNAMGWYRQAPGKERELVAAISSDGRTNYADSVKGRFTISRDNAKNTVYLQMNSLKPEDTAVYYCAASYVLSYGTYYYWGQGTQVTVSS,low polyreactivity
4,QVQLVESGGGLVQAGGSLRLSCAASGRTFKRNAMGWYRQAPGKERELVAGISGSGTTTYYADSVKGRFTISRDNAKNTVYLQMNSLKPEDTAVYYCAARALSHGARYDYWGQGTQVTVSS,high polyreactivity
5,QVQLVESGGGLVQAGGSLRLSCAASGRTFKRYAMGWYRQAPGKERELVAAITWSGGNTYYADSVKGRFTISRDNAKNTVYLQINSLKPEDTAVYYCAAKGAGRRYDSWGQGTQVTVSS,high polyreactivity
6,QVQLVESGGGLVQAGGSLRLSCAASGRTFKSYAMGWYRQAPGKERELVAAISKRGGSTYYADSVKGRFTISRDNAKNTVYLQMNSLKPADTAVYYCNKLYLKPGRYYYWGQGTQVTVSS,high polyreactivity
7,QVQLVESGGGLVQAGGSLRLSCAASGRTFKVYAMGWYRQAPGKERELVAAITGGGSTNYADSVKGRFTISRDNAKNTVYLQMNSLKPEDTAVYYCNARYYYRLVKWSRFSSYDYWGQGTQVTVSS,low polyreactivity
8,QVQLVESGGGLVQAGGSLRLSCAASGRTFKYNAMAWYRQAPGTERELVADISYSGDSTYYADSVKGRFTISRDNAKNTVYLQMNSLKPEDTAVYYCNAVLTHGRLWRAHGYWGQGTQVTVSS,high polyreactivity
9,QVQLVESGGGLVQAGGSLRLSCAASGRTFKYNAMGWYRPAPGKERELVAAISSTGSTNYADSVKGRFTISRDNAKNTVYLQMNSLKPEDTAVYYCAASYFFVQWGWYYYWGQGTQVTVSS,low polyreactivity
10,QVQLVESGGGLVQAGGSLRLSCAASGRTFKYNAMGWYRQAPGKERELVAAIRKSGTRTYYADSVKGRFTISRDNAKNTVYLQMNSLKPEDTAVYYCNRVGFDYWGQGTQVTVSS,low polyreactivity
11,QVQLVESGGGLVQAGGSLRLSCAASGRTFKYNAMVWYRQAPGKERELVATISGSGGRKYYADSVKGRFTISRDNAKNTVYLQMNSLKPEDTAVYYCKAPRVKWLDWGQGTKVTVSS,high polyreactivity
12,QVQLVESGGGLVQAGGSLRLSCAASGRTFKYNSMGWYRQAPGKERELVAAITRSGSTYYADSVKGRFTISRDNAKNTVYLQMNSLKPEDTAVYYCNARIVNYGSYYYWGQGTQVTVSS,high polyreactivity
13,QVQLVESGGGLVQAGGSLRLSCAASGRTFKYNVMGWYRQAPGKERELVAAISSGGGTNYADSVKGRFTISRDNAKNTVYLQMNSLKPEDTAVYYCAAKYAWRLLEMYYWGQGTQVTVSS,low polyreactivity
14,QVQLVESGGGLVQAGGSLRLSCAASGRTFKYYAMGWYRQAPGKERELVAAISLSSGRTYYADSVKGRFTISRDIAKNTVYLQMNSLKPEDTAVYYCARVTTGGYEYWGQGTQVTVSS,high polyreactivity
15,QVQLVESGGGLVQAGGSLRLSCAASGRTFKYYAMGWYRQAPGKERELVAAISNGGRTNYADSVKGRFTISRDNAKNTVYLQMNSLKPEDTAVYYCAKRSFYFSDYDYWGQGTQVTVSS,high polyreactivity
16,QVQLVESGGGLVQAGGSLRLSCAASGRTFKYYAMGWYRQAPGKERELVATISFRGGSTYYADSVKGRFTISRDNAKNTVYLQMNSLKPEDTSVYYCARRQWSRRPDDYWGQGTQVTVSS,high polyreactivity
17,QVQLVESGGGLVQAGGSLRLSCAASGRTFKYYAMGWYRQAPGKERELVATITWSGTSTNYADSVKGRFTISRDTANNSVYLQMNSLKPEDTAVYYCAARSKRRNYDYWGQGTQVTVSS,high polyreactivity
18,QVQLVESGGGLVQAGGSLRLSCAASGRTFKYYTMGWYRQAPGKEREFVAAITSSGGRTYYADSVKGRFTISRDNAKNTVYLQMNSLKPEDTAVYYCAASTYRVWLAPATLSRYDYWGQGTQVTVSS,high polyreactivity
19,QVQLVESGGGLVQAGGSLRLSCAASGRTFKYYTMGWYRQAPGKERELVAAITGSGGSTYYADSVKGRFTISRDNAKNTVYLQMNSLKPEDTAVYYCAAYRTFSREYYYWGQGTQVTVSS,high polyreactivity
20,QVQLVESGGGLVQAGGSLRLSCAASGRTFLAIGWYRQAPGKETELVATINGSDGNTYYADSVKGRFTISRDNAENTVYLQMNILKPEDTAVYYCAKRADHTYLPLRPGYPEYNYWRQGTQVTVSS,low polyreactivity
21,QVQLVESGGGLVQAGGSLRLSCAASGRTFLDNAMGWYRQAPGKERELVAAISYSGGSTYYADSVKGRFTISRDNAKNTVYLQMNSLKPEDTAVYYCAADPRQYDYYLLAYDYWGQGTQVTVSS,low polyreactivity
